# B1: GST-tagged ELMO1-RBD (residues 1-113), wild-type [human] / RhoG (residues 1-184) [human] (parent complex)
# chain 1: MPPPADIVKVAIEWPGAYPKLMEIDQKKPLSAIIKEVCDGWSLANHEYFALQHADSSNFYITEKNRNEIKNGTILRLTTSPAQNAQQLHERIQSSSMDAKLEALKDLASLSRD
# chain 2: not shown
# Variants of: B1
# Test: SPR; RhoG in the active GTPγS-bound form; n = 3 independent experiments
row,Variant,Kd [µM]
1,chain 1 E13A,44.3
2,chain 1 L21A,163
3,chain 1 N58A,10

# Variants of: B1
# Test: SPR; read at the highest RhoG concentration, about 35 µM; RhoG in the active GTPγS-bound form; read off a plot
row,Variant,response [%]
1,chain 1 E13A,~46
2,chain 1 L21A,~18
3,chain 1 N58A,~78
4,chain 1 K20E,~64
5,chain 1 K9A,~0
6,chain 1 Y18A,~59

# — article PMC10023680 (2023)
